From paper PMC10691244, “The mechanism of Gαq regulation of PLCβ3-catalyzed PIP2 hydrolysis” (Proceedings of the National Academy of Sciences of the …, 2023)

Target: T1, Phospholipase Cβ3 (PLCβ3), wild type (UniProt Q01970 10-1234)
T1 construct: Phospholipase Cβ3; The CTD linker and distal CTD are disordered in the structures; also called wild-type PLCβ3
T1 sequence: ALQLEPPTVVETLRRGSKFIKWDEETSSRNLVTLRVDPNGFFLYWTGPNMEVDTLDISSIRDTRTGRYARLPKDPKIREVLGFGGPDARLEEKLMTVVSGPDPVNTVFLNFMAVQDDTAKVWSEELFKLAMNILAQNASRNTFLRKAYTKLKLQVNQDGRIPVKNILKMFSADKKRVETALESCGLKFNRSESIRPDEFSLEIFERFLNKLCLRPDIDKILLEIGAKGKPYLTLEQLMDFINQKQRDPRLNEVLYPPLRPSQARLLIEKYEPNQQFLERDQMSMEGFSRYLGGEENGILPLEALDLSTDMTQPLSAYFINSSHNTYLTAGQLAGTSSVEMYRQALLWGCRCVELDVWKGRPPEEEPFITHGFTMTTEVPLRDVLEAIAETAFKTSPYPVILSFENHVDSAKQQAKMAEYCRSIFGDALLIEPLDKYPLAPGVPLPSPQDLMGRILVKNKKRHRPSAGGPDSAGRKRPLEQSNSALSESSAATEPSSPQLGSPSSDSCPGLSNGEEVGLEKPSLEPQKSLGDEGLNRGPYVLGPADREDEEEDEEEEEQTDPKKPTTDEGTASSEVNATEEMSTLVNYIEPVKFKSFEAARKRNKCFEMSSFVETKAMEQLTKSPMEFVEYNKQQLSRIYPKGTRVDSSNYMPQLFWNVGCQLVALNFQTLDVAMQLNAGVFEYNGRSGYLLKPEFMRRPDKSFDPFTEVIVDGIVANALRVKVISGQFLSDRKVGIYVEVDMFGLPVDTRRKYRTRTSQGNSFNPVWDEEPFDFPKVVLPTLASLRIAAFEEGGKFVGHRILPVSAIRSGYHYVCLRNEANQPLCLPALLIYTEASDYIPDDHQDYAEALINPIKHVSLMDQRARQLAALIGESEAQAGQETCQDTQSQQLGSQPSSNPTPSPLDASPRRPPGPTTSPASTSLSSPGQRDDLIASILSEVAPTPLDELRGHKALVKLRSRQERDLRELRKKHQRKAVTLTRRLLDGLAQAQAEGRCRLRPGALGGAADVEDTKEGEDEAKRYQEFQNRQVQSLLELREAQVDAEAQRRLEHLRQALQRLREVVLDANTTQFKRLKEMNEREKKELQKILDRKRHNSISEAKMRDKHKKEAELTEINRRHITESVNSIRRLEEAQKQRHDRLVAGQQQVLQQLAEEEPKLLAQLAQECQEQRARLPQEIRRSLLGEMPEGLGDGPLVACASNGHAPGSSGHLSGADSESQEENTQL
Assay: cryo-EM structure; PLCβ3 mixed with wildtype Gαq bound to GDP-AlF4, then added to 2DOPE:1POPC:1POPS (wt:wt:wt) vesicles with reconstituted lipidated Gβγ; 3.4 Å
Details: both partners purified

B1: Gαq, wild type, nonlipidated, bound to GDP-AlF4 (natural protein)
chain: MACCLSEEAKEARRINDEIERQLRRDKRDARRELKLLLLGTGESGKSTFIKQMRIIHGSGYSDEDKRGFTKLVYQNIFTAMQAMIRAMDTLKIPYKYEHNKAHAQLVREVDVEKVSAFENPYVDAIKSLWNDPGIQECYDRRREYQLSDSTKYYLNDLDRVADPAYLPTQQDVLRVRVPTTGIIEYPFDLQSVIFRMVDVGGQRSERRKWIHCFENVTSIMFLVALSEYDQVLVESDNENRMEESKALFRTIITYPWFQNSSVILFLNKKDLLEEKIMYSHLVDYFPEYDGPQRDAQAAREFILKMFVDLNPDSDKIIYSHFTCATDTENIRFVFAAVKDTILQLNLKEYNLV
notes: In the structures the N terminus is disordered until position 38; Construct limits, any chimeric N terminus, host and tags are described only in SI Appendix, Materials and Methods; also called wildtype Gαq; wild-type Gαq
stoichiometry N: 1
